Target: T1, ubiquitin (S. pombe (endogenous in S. pombe), UniProt P0CG72 1-76)
T1 construct: ubiquitin of S. pombe, the cut product of the ubiquitin precursors; precipitated with an anti-ubiquitin polyclonal antibody; The ubiquitin may be free, in chains or covalently conjugated; source: endogenous, S. pombe lysate
Assay: co-IP; S. pombe extract (Buffer A: 50mM Hepes-KOH pH 7.5, 5mM MgAc, 100mM KAc, 0.1% NP40, 1mM DTT, 0.5mg/ml BSA) precipitated with anti-ubiquitin rabbit polyclonal antibody overnight at 4°C, then A/G magnetic beads; blot with anti-HA (Cts1-flag-3HA, with MG132) or anti-GFP (Cts1-YFP strains; also in mug30Δ and ubr11Δ backgrounds); IP signal normalised over input
Settings: partners not purified

T1 sequence (P0CG72 1-76): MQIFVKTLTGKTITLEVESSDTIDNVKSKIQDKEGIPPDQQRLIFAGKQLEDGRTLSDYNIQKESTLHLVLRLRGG

B1: Cts1-YFP K430R (enzyme, S. pombe, UniProt O42644 1-600, looked up)
chain: MKYVLVSGGVISGIGKGVIASSTGLLLKTLGLKVTSIKIDPYMNIDAGTMSPLEHGEVFVLNDGGEVDLDLGNYERYLNVTLTHDNNITTGKVYSNVIQKERRGDYLGKTVQIVPHVTNEIQDWVERVARIPVDQSGEEPDVCIVELGGTVGDIESAAFVEAMRQFQFRVGHENFVSIHVSLVPVINGEQKTKPTQQAIRDLRSLGITPDLIACRCKQPLEKSVIDKISLFCHVGPEQVLAVHDVSSTYHVPQLLEDKLLEYLKIRFALDKISVSRELALAGENMWSSWKHLTQGYDHLFKKVTIVLVGKYTHLQDSYISVIKALEHSAMRCGRKLDLQWVEASHLEASTNTSDPLSYHKAWHLVCSANGILVPGGFGSRGVEGMIAAAKWARENNTPYLGICLGMQVAVIEFARSVCGIEGAFSEEFDRECENNVVVYMPEIDKDKLGGTMRLGLRPTFFQPNSEWSKLRKLHKMVDEVLERHRHRYEINPAFVSRLEQGGISFIGKDERGERMEIIEKRDHPYFVGVQYHPEYLSKPLKPSPPIFGLVAASAGLLDEFIQSGEEVEWSNFSHFNAESALADMNDSVEVTEEATVVTIS
notes: CTP synthase (Cts1) of Schizosaccharomyces pombe with the point mutation K430R, fused to YFP; source: S. pombe K430R strain in a Cts1-YFP background, in cell lysate
- fold reduction of the co-IP signal against Cts1-YFP: 6.2 fold

From paper doi:10.1101/2021.12.06.470909, “Ubiquitination regulates cytoophidium assembly in Schizosaccharomyces pombe” (bioRxiv, 2021)
